Data: patent publication US20250376519A1 (JIANGSU HENGRUI PHARMACEUTICALS, published 2025)

T1: human DLL3 on cells (human, UniProt Q9NYJ7 27-618)
T1 construct: Endogenous on H1184 and SHP77; Cell line is named under assay; also called H1184; DLL3/H82
T1 sequence: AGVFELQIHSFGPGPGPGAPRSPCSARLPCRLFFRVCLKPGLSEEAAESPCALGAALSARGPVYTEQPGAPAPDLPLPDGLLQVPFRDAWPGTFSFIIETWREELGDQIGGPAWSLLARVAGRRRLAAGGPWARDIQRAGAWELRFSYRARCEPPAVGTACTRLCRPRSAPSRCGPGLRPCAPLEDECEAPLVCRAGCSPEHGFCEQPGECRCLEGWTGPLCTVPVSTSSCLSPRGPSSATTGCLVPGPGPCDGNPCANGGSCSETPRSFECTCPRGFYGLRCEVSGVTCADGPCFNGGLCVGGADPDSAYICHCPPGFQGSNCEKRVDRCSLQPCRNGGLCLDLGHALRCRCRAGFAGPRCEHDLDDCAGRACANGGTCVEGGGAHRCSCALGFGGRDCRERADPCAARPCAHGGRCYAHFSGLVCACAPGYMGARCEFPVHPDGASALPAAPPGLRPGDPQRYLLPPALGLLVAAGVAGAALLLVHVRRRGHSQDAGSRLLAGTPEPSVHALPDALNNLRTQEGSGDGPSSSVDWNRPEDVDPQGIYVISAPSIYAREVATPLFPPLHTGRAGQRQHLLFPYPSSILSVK

T2: human DLL3 (ACRO, DLL3-H52H4) (human, UniProt Q9NYJ7 27-492)
T2 construct: Bought
T2 sequence: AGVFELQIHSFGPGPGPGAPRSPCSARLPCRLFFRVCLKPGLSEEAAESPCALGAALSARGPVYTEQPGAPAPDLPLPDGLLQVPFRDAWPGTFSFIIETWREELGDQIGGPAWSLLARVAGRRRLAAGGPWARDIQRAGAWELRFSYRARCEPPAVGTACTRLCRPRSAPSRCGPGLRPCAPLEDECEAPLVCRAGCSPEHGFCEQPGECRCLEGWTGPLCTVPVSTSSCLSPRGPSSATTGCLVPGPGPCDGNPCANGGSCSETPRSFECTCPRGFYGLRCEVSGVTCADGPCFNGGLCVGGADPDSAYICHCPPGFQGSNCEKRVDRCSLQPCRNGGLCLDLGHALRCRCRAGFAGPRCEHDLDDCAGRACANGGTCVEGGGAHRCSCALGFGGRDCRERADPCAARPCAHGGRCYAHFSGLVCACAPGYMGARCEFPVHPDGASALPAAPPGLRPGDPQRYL


What was measured:
hPDL1 = biological target: T3, hPDL1 (human, UniProt Q9NZQ7 19-239); assay: ELISA
T3 construct: bought

hCTLA4 = biological target: T4, hCTLA4 (human, UniProt P16410 36-162, limits assumed); assay: ELISA
T4 construct: bought

human DLL3 on cells = biological target: T1, human DLL3 on cells; assay: flow cytometry, DLL3/H82 cells
Method: The plates were centrifuged at 300 g for 5 min, and the supernatant was removed. Different concentrations of test antibodies were added at 100 μL/well. The plates were incubated in the dark in a refrigerator at 4° C. for 1 h. After 3 centrifugal washes at 300 g, working concentrations of APC anti-human IgG Fc (BioLegend, 410712) or PE F(ab′)2-goat anti-human IgG (invitrogen, H10104) were added. The plates were incubated in the dark in a refrigerator at 4° C. for 40 min. After 3 centrifugal washes at 300 g, the geometric mean fluorescence intensity was measured on an Invitrogen flow cytometer, and the EC50 values for the binding of the antibodies to DLL3-expressing cells were calculated.

[1] = biological target: T2, human DLL3 (ACRO, DLL3-H52H4); assay: SPR Biacore 8K, Ab captured on Protein A
Method in brief: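 Antibodies captured on a Protein A chip for 18 s; DLL3 or CD3D&3E antigen flowed 180 s, then 600 s dissociation, with real-time detection. Regeneration used 10 mM glycine-HCl pH 1.5 between cycles. Kinetics were obtained by 1:1 model fitting.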

T3 sequence (Q9NZQ7 19-239 limits assumed): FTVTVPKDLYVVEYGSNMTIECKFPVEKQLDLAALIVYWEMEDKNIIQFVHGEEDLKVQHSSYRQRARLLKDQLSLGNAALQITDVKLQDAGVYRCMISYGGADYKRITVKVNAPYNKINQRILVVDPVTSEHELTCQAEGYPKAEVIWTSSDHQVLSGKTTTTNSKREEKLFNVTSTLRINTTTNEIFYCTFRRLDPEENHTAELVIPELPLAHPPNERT
T4 sequence (P16410 36-162 limits assumed): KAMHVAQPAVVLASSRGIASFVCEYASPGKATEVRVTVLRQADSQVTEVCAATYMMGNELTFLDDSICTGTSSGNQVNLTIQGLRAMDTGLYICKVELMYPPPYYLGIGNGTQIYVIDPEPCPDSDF

EC50 (hPDL1) [nM] | EC50 (hCTLA4) [nM] | EC50 (human DLL3 on cells) [nM] | Emax (human DLL3 on cells) | Kd [1] [nM] | koff [1] [s⁻¹] | kon [1] [M⁻¹ s⁻¹] | Binder
1.6 | 16.5 | – | – | – | – | – | PL-1 (bispecific antibody) chain 1: not shown chain 2: DIVLTQSPASLAVSPGQRATITCRASESVSIHGTHLMHWYQQKPGQPPKLLIYAASKLESGVPARFSGSGSGTDFTLTINPVEAEDTANYYCQQSFEDPLTFGQGTKLEIKGGGGSGIPPKIECLPIDISIDEGKVLTVASAFTGEPTPEVTWSTGGRKIHSQEQGRFHIENTDDLTTLIIKDVQKQDGGLYTLTLRNEFGSDSATVNIHIRSI chain 3: not shown chain 4: not shown
0.6 | 7.9 | – | – | – | – | – | PL-3 (bispecific antibody) chain 1: not shown chain 2: DIVLTQSPASLAVSPGQRATITCRASESVSIHGTHLMHWYQQKPGQPPKLLIYAASKLESGVPARFSGSGSGTDFTLTINPVEAEDTANYYCQQSFEDPLTFGQGTKLEIKGGGGSGIPPKIECLPIDISIDEGKCLTVASAFTGEPTPEVTWSTGGRKIHSQEQGRFHIENTDDSTTLTIKDVQKQDGGLYTLTLRNEFGSDSATVNIHIRSI chain 3: not shown chain 4: not shown
0.7 | 6.5 | – | – | – | – | – | PL-4 (bispecific antibody) chain 1: not shown chain 2: DIVLTQSPASLAVSPGQRATITCRASESVSIHGTHLMHWYQQKPGQPPKLLIYAASKLESGVPARFSGSGSGTDFTLTINPVEAEDTANYYCQQSFEDPLTFGQGTKLEIKGGGGSGIPPKIECLPIDISIDEGKVLTVASCFTGEPTPEVTWSTGGRKIHSQEQGRFHIENTDDSTTLTIKDVQKQDGGLYTLTLRNEFGSDSATVNIHIRSI chain 3: not shown chain 4: not shown
0.5 | 8 | – | – | – | – | – | PL-2 (bispecific antibody) chain 1: not shown chain 2: DIVLTQSPASLAVSPGQRATITCRASESVSIHGTHLMHWYQQKPGQPPKLLIYAASKLESGVPARFSGSGSGTDFTLTINPVEAEDTANYYCQQSFEDPLTFGQGTKLEIKGGGGSGIPPKIECLPIDISIDEGKVLTVASAFTGEPTPEVTWSTGGRKIHSQEQGRFHIENTDDSTTLTIKDVQKQDGGLYTLTLRNEFGSDSATVNIHIRSI chain 3: not shown chain 4: not shown
– | – | 1.15 | 4560 | 0.0843 | 4.75e-05 | 564000 | hu110L1H3 (antibody, human IgG1, kappa, V domains shown) VH: EVQLVQSGAEVKKPGASVKVSCKTSGYTFTDYYMNWVRQAPGQSLEWMGIINPYQGGTSYTQKFKGRVTITVDKSASTAYMELSSLRSEDTAVYYCARHFYDSSYLTYSTMDYWGQGTTVTVSS VL: DIVMTQSPDSLAVSLGERATINCKASENVGIFVSWYQQKPGQSPKLLIYGASNRYTGVPDRFSGSGSATDFTLTISSLQAEDVAVYYCGQSHSYPLTFGQGTKLEIKR
– | – | 1.71 | 4670 | 0.206 | 8.96e-05 | 434000 | hu110L2H5 (antibody, human IgG1, kappa, V domains shown) VH: EVQLVQSGAEVKKPGASVKVSCKTSGYTFTDYYMNWVRQAPGQSLEWMGIINPYTGGTSYTQKFKGRVTITVDKSASTAYMELSSLRSEDTAVYYCARHFYDSSYLTYSTMDYWGQGTTVTVSS VL: NIVMTQSPKSLAVSLGERATINCKASENVGIFVSWYQQKPGQSPKLLIYGASNRYTGVPDRFSGSGSATDFTLTISSLQAEDVADYYCGQSHSYPLTFGQGTKLEIKR
– | – | 1.51 | 4580 | 0.0911 | 4.8e-05 | 527000 | hu110L1H4 (antibody, human IgG1, kappa, V domains shown) VH: EVQLVQSGAEVKKPGASVKVSCKTSGYTFTDYYMNWVRQAPGQSLEWMGIINPYSGGTSYTQKFKGRVTITVDKSASTAYMELSSLRSEDTAVYYCARHFYDSSYLTYSTMDYWGQGTTVTVSS VL: DIVMTQSPDSLAVSLGERATINCKASENVGIFVSWYQQKPGQSPKLLIYGASNRYTGVPDRFSGSGSATDFTLTISSLQAEDVAVYYCGQSHSYPLTFGQGTKLEIKR
– | – | 1.61 | 4610 | 0.141 | 6.41e-05 | 454000 | hu110L1H5 (antibody, human IgG1, kappa, V domains shown) VH: EVQLVQSGAEVKKPGASVKVSCKTSGYTFTDYYMNWVRQAPGQSLEWMGIINPYTGGTSYTQKFKGRVTITVDKSASTAYMELSSLRSEDTAVYYCARHFYDSSYLTYSTMDYWGQGTTVTVSS VL: DIVMTQSPDSLAVSLGERATINCKASENVGIFVSWYQQKPGQSPKLLIYGASNRYTGVPDRFSGSGSATDFTLTISSLQAEDVAVYYCGQSHSYPLTFGQGTKLEIKR
– | – | 1.25 | 4750 | 0.12 | 6.25e-05 | 521000 | hu110L2H2 (antibody, human IgG1, kappa, V domains shown) VH: EVQLVQSGAEVKKPGASVKVSCKTSGYTFTDYYMNWVRQAPGQSLEWMGIINPYNGGTSYTQKFKGRVTITVDKSASTAYMELSSLRSEDTAVYYCARHFYDSSYLTYSTMDYWGQGTTVTVSS VL: NIVMTQSPKSLAVSLGERATINCKASENVGIFVSWYQQKPGQSPKLLIYGASNRYTGVPDRFSGSGSATDFTLTISSLQAEDVADYYCGQSHSYPLTFGQGTKLEIKR
– | – | 1.25 | 4720 | 0.115 | 5.84e-05 | 509000 | hu110L2H1 (antibody, human IgG1, kappa, V domains shown) VH: EVQLVQSGAEVKKPGASVKVSCKASGYTFTDYYMNWVRQAPGQRLEWMGIINPYNGGTSYTQKFKGRVTITVDKSASTAYMELSSLRSEDTAVYYCARHFYDSSYLTYSTMDYWGQGTTVTVSS VL: NIVMTQSPKSLAVSLGERATINCKASENVGIFVSWYQQKPGQSPKLLIYGASNRYTGVPDRFSGSGSATDFTLTISSLQAEDVADYYCGQSHSYPLTFGQGTKLEIKR
– | – | 1.66 | 4620 | 0.102 | 5.32e-05 | 520000 | hu110L1H6 (antibody, human IgG1, kappa, V domains shown) VH: EVQLVQSGAEVKKPGASVKVSCKTSGYTFTDYYMNWVRQAPGQSLEWMGIINPYNVGTSYTQKFKGRVTITVDKSASTAYMELSSLRSEDTAVYYCARHFYDSSYLTYSTMDYWGQGTTVTVSS VL: DIVMTQSPDSLAVSLGERATINCKASENVGIFVSWYQQKPGQSPKLLIYGASNRYTGVPDRFSGSGSATDFTLTISSLQAEDVAVYYCGQSHSYPLTFGQGTKLEIKR
– | – | 1.4 | 5190 | 0.167 | 6.86e-05 | 411000 | hu110L2H6 (antibody, human IgG1, kappa, V domains shown) VH: EVQLVQSGAEVKKPGASVKVSCKTSGYTFTDYYMNWVRQAPGQSLEWMGIINPYNVGTSYTQKFKGRVTITVDKSASTAYMELSSLRSEDTAVYYCARHFYDSSYLTYSTMDYWGQGTTVTVSS VL: NIVMTQSPKSLAVSLGERATINCKASENVGIFVSWYQQKPGQSPKLLIYGASNRYTGVPDRFSGSGSATDFTLTISSLQAEDVADYYCGQSHSYPLTFGQGTKLEIKR
– | – | 1.32 | 4570 | 0.117 | 6.45e-05 | 550000 | hu110L2H3 (antibody, human IgG1, kappa, V domains shown) VH: EVQLVQSGAEVKKPGASVKVSCKTSGYTFTDYYMNWVRQAPGQSLEWMGIINPYQGGTSYTQKFKGRVTITVDKSASTAYMELSSLRSEDTAVYYCARHFYDSSYLTYSTMDYWGQGTTVTVSS VL: NIVMTQSPKSLAVSLGERATINCKASENVGIFVSWYQQKPGQSPKLLIYGASNRYTGVPDRFSGSGSATDFTLTISSLQAEDVADYYCGQSHSYPLTFGQGTKLEIKR
– | – | 1.41 | 4600 | 0.103 | 5.11e-05 | 496000 | hu110L2H4 (antibody, human IgG1, kappa, V domains shown) VH: EVQLVQSGAEVKKPGASVKVSCKTSGYTFTDYYMNWVRQAPGQSLEWMGIINPYSGGTSYTQKFKGRVTITVDKSASTAYMELSSLRSEDTAVYYCARHFYDSSYLTYSTMDYWGQGTTVTVSS VL: NIVMTQSPKSLAVSLGERATINCKASENVGIFVSWYQQKPGQSPKLLIYGASNRYTGVPDRFSGSGSATDFTLTISSLQAEDVADYYCGQSHSYPLTFGQGTKLEIKR
